Numbered stars: 1 amine (or outer) side, 2 acyl side, 3 side chain; on linkers, the order of the positions; unused ones are H or OH. Square brackets hold non-standard residues; d marks the D form. Orn(CA) = ornithine chloroamidine, O(CA), N=C(CCl)NCCC[C@H](N[*:1])C(=O)[*:2]; Orn(fluoroacetimidoyl) = N=C(CF)NCCC[C@H](N)C(=O)O
Legend:
recombinant human PAD4 = recombinant human PAD4 (human, UniProt Q9UM07 1-663); assay: cell-based or functional assay
recombinant human PAD2 = recombinant human PAD2 (human, UniProt Q9Y2J8 1-665); assay: cell-based or functional assay
Chain of recombinant human PAD2 (Q9Y2J8 whole entry): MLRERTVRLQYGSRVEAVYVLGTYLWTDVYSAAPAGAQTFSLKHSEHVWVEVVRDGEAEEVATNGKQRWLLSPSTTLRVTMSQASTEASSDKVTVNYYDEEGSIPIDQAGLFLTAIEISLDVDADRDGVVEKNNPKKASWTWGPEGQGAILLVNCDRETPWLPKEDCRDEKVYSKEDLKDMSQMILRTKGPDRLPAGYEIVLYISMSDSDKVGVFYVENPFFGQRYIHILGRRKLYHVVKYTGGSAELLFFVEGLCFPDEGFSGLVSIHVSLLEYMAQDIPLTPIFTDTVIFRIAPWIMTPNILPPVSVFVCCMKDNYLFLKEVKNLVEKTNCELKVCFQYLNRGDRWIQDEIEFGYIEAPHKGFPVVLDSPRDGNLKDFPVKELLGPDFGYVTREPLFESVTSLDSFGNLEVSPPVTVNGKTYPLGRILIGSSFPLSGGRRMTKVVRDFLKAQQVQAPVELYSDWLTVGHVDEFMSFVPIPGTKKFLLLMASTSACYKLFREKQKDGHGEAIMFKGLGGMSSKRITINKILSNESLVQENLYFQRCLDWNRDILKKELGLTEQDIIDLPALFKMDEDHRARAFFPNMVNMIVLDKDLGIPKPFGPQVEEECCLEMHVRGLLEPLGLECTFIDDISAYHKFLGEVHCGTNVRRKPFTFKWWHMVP

Chain of recombinant human PAD4 (Q9UM07 whole entry): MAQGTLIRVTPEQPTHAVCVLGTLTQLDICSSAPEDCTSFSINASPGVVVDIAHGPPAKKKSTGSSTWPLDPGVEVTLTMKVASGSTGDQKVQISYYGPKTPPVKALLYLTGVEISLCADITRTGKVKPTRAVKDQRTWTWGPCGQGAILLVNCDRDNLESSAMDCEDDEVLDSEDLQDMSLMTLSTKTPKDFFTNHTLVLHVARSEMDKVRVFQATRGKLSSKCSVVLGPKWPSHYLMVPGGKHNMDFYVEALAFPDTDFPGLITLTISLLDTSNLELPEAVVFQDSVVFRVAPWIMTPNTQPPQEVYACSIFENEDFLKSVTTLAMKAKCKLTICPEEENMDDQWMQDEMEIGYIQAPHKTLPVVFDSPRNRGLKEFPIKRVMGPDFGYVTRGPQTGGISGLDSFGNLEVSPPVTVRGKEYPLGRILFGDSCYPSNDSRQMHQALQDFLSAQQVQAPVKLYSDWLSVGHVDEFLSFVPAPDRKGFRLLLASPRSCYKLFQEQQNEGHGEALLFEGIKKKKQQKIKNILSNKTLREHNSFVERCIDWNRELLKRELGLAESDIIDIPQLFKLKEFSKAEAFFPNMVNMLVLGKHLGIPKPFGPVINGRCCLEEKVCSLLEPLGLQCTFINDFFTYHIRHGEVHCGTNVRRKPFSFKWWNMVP

Binder | conversion of 0708-30 by PAD4, 10 µM inhibitor (recombinant human PAD4) [%] | conversion of 0708-30 by PAD4, 50 µM inhibitor (recombinant human PAD4) [%] | conversion of 0708-30 by PAD4, 100 µM inhibitor (recombinant human PAD4) [%] | conversion of 0708-30 by PAD2, 10 µM inhibitor (recombinant human PAD2) [%] | conversion of 0708-30 by PAD2, 50 µM inhibitor (recombinant human PAD2) [%] | conversion of 0708-30 by PAD2, 100 µM inhibitor (recombinant human PAD2) [%]
Ac-FFDSHKWH[Orn(CA)]DFFYSD-NH2 (SMILES CC(=O)N[C@@H](Cc1ccccc1)C(=O)N[C@@H](Cc1ccccc1)C(=O)N[C@@H](CC(=O)O)C(=O)N[C@@H](CO)C(=O)N[C@@H](Cc1c[nH]cn1)C(=O)N[C@@H](CCCCN)C(=O)N[C@@H](Cc1c[nH]c2ccccc12)C(=O)N[C@@H](Cc1c[nH]cn1)C(=O)N[C@@H](CCCNC(=N)CCl)C(=O)N[C@@H](CC(=O)O)C(=O)N[C@@H](Cc1ccccc1)C(=O)N[C@@H](Cc1ccccc1)C(=O)N[C@@H](Cc1ccc(O)cc1)C(=O)N[C@@H](CO)C(=O)N[C@@H](CC(=O)O)C(N)=O) [0741-02CA] | 63 | 31 | 19 | 67 | 32 | 18
Ac-FFDSHKFD[Orn(CA)]DFIYSD-NH2 (SMILES CC[C@H](C)[C@H](NC(=O)[C@H](Cc1ccccc1)NC(=O)[C@H](CC(=O)O)NC(=O)[C@H](CCCNC(=N)CCl)NC(=O)[C@H](CC(=O)O)NC(=O)[C@H](Cc1ccccc1)NC(=O)[C@H](CCCCN)NC(=O)[C@H](Cc1c[nH]cn1)NC(=O)[C@H](CO)NC(=O)[C@H](CC(=O)O)NC(=O)[C@H](Cc1ccccc1)NC(=O)[C@H](Cc1ccccc1)NC(C)=O)C(=O)N[C@@H](Cc1ccc(O)cc1)C(=O)N[C@@H](CO)C(=O)N[C@@H](CC(=O)O)C(N)=O) [0741-03CA] | 62 | 24 | 14 | 57 | 49 | 23
Ac-FFDSKHFD[Orn(fluoroacetimidoyl)]EWIWSD-NH2 (SMILES CC[C@H](C)[C@H](NC(=O)[C@H](Cc1c[nH]c2ccccc12)NC(=O)[C@H](CCC(=O)O)NC(=O)[C@H](CCCNC(=N)CF)NC(=O)[C@H](CC(=O)O)NC(=O)[C@H](Cc1ccccc1)NC(=O)[C@H](Cc1c[nH]cn1)NC(=O)[C@H](CCCCN)NC(=O)[C@H](CO)NC(=O)[C@H](CC(=O)O)NC(=O)[C@H](Cc1ccccc1)NC(=O)[C@H](Cc1ccccc1)NC(C)=O)C(=O)N[C@@H](Cc1c[nH]c2ccccc12)C(=O)N[C@@H](CO)C(=O)N[C@@H](CC(=O)O)C(N)=O) [0741-01FA] | 63 | 24 | 15 | 69 | 29 | 14
Ac-DSHKFD[Orn(fluoroacetimidoyl)]DFIYSD-NH2 (SMILES CC[C@H](C)[C@H](NC(=O)[C@H](Cc1ccccc1)NC(=O)[C@H](CC(=O)O)NC(=O)[C@H](CCCNC(=N)CF)NC(=O)[C@H](CC(=O)O)NC(=O)[C@H](Cc1ccccc1)NC(=O)[C@H](CCCCN)NC(=O)[C@H](Cc1c[nH]cn1)NC(=O)[C@H](CO)NC(=O)[C@H](CC(=O)O)NC(C)=O)C(=O)N[C@@H](Cc1ccc(O)cc1)C(=O)N[C@@H](CO)C(=O)N[C@@H](CC(=O)O)C(N)=O) [0741-05FA] | 55 | 22 | 14 | 54 | 24 | 15

Second part, the binder after the results:

conversion of 0708-30 by PAD4, 10 µM inhibitor (recombinant human PAD4) [%] | conversion of 0708-30 by PAD4, 50 µM inhibitor (recombinant human PAD4) [%] | conversion of 0708-30 by PAD4, 100 µM inhibitor (recombinant human PAD4) [%] | conversion of 0708-30 by PAD2, 10 µM inhibitor (recombinant human PAD2) [%] | conversion of 0708-30 by PAD2, 50 µM inhibitor (recombinant human PAD2) [%] | conversion of 0708-30 by PAD2, 100 µM inhibitor (recombinant human PAD2) [%] | Binder
74 | 43 | 27 | 73 | 42 | 25 | Ac-DSKKHD[Orn(fluoroacetimidoyl)]DFLYSD-NH2 (SMILES CC(=O)N[C@@H](CC(=O)O)C(=O)N[C@@H](CO)C(=O)N[C@@H](CCCCN)C(=O)N[C@@H](CCCCN)C(=O)N[C@@H](Cc1c[nH]cn1)C(=O)N[C@@H](CC(=O)O)C(=O)N[C@@H](CCCNC(=N)CF)C(=O)N[C@@H](CC(=O)O)C(=O)N[C@@H](Cc1ccccc1)C(=O)N[C@@H](CC(C)C)C(=O)N[C@@H](Cc1ccc(O)cc1)C(=O)N[C@@H](CO)C(=O)N[C@@H](CC(=O)O)C(N)=O) [0741-06FA]
68 | 55 | 26 | 69 | 47 | 50 | Ac-FFDSHKLH[Orn(CA)]EWMWSD-NH2 (SMILES CSCC[C@H](NC(=O)[C@H](Cc1c[nH]c2ccccc12)NC(=O)[C@H](CCC(=O)O)NC(=O)[C@H](CCCNC(=N)CCl)NC(=O)[C@H](Cc1c[nH]cn1)NC(=O)[C@H](CC(C)C)NC(=O)[C@H](CCCCN)NC(=O)[C@H](Cc1c[nH]cn1)NC(=O)[C@H](CO)NC(=O)[C@H](CC(=O)O)NC(=O)[C@H](Cc1ccccc1)NC(=O)[C@H](Cc1ccccc1)NC(C)=O)C(=O)N[C@@H](Cc1c[nH]c2ccccc12)C(=O)N[C@@H](CO)C(=O)N[C@@H](CC(=O)O)C(N)=O) [0741-04CA]
63 | 31 | 17 | 69 | 38 | 23 | Ac-FFDSKHFD[Orn(CA)]EWIWSD-NH2 (SMILES CC[C@H](C)[C@H](NC(=O)[C@H](Cc1c[nH]c2ccccc12)NC(=O)[C@H](CCC(=O)O)NC(=O)[C@H](CCCNC(=N)CCl)NC(=O)[C@H](CC(=O)O)NC(=O)[C@H](Cc1ccccc1)NC(=O)[C@H](Cc1c[nH]cn1)NC(=O)[C@H](CCCCN)NC(=O)[C@H](CO)NC(=O)[C@H](CC(=O)O)NC(=O)[C@H](Cc1ccccc1)NC(=O)[C@H](Cc1ccccc1)NC(C)=O)C(=O)N[C@@H](Cc1c[nH]c2ccccc12)C(=O)N[C@@H](CO)C(=O)N[C@@H](CC(=O)O)C(N)=O) [0741-01CA]
64 | 28 | 14 | 62 | 24 | 14 | Ac-FFDSHKLH[Orn(fluoroacetimidoyl)]EWMWSD-NH2 (SMILES CSCC[C@H](NC(=O)[C@H](Cc1c[nH]c2ccccc12)NC(=O)[C@H](CCC(=O)O)NC(=O)[C@H](CCCNC(=N)CF)NC(=O)[C@H](Cc1c[nH]cn1)NC(=O)[C@H](CC(C)C)NC(=O)[C@H](CCCCN)NC(=O)[C@H](Cc1c[nH]cn1)NC(=O)[C@H](CO)NC(=O)[C@H](CC(=O)O)NC(=O)[C@H](Cc1ccccc1)NC(=O)[C@H](Cc1ccccc1)NC(C)=O)C(=O)N[C@@H](Cc1c[nH]c2ccccc12)C(=O)N[C@@H](CO)C(=O)N[C@@H](CC(=O)O)C(N)=O) [0741-04FA]

Source: patent US20110142868A1 (CHIRALIX B V, published 2011)
